# Reference: patent US20190040102A1 (CDRD VENTURES, published 2019)
# Starred links: 1 amine or outer side, 2 acyl side, 3 side chain; linkers in the order of their positions; H or OH if unused. Positions of bridges follow the written chain, without caps; N, C: chain ends. Non-standard residues stand in square brackets, D forms with d. *: point of attachment. Tyr(Me) = 4-OMe-Phe, COc1ccc(C[C@H](N[*:1])C(=O)[*:2])cc1; dPhe(4-CONH2) = NC(=O)c1ccc(C[C@@H](N)C(=O)O)cc1; dTyr(Me) = COc1ccc(C[C@@H](N[*:1])C(=O)[*:2])cc1; Phe(4-Cl) = N[C@@H](Cc1ccc(Cl)cc1)C(=O)O; dPhe(4-Cl) = N[C@H](Cc1ccc(Cl)cc1)C(=O)O; Bz = O=C(c1ccccc1)*; βAla = NCCC(=O)O
# B1: Compound 8: H-Cpa-cyclo[DCys-Tyr-D-4-(Gly)Aph-Lys-Thr-Cys]-DTyr-NH2 (peptide)
# peptide: XXYXKTCX
# HELM: PEPTIDE1{[N[C@@H](Cc1ccc(Cl)cc1)C(=O)[*:2]].[dC].Y.[O=C([C@@H](Cc1ccc(N[*:3])cc1)N[*:1])[*:2]].K.T.C.[dY].[am]}|PEPTIDE2{G}$PEPTIDE1,PEPTIDE2,4:R3-1:R2|PEPTIDE1,PEPTIDE1,2:R3-7:R3$$$V2.0
# SMILES: C[C@@H](O)[C@@H]1NC(=O)[C@H](CCCCN)NC(=O)[C@@H](Cc2ccc(NC(=O)CN)cc2)NC(=O)[C@H](Cc2ccc(O)cc2)NC(=O)[C@H](NC(=O)[C@@H](N)Cc2ccc(Cl)cc2)CSSC[C@@H](C(=O)N[C@H](Cc2ccc(O)cc2)C(N)=O)NC1=O
# B2: Compound 9: H-Cpa-cyclo[DCys-Tyr-D-4-(Gly-Ac)Aph-Lys-Thr-Cys]-DTyr-NH2 (peptide)
# peptide: XXYXKTCX
# HELM: PEPTIDE1{[N[C@@H](Cc1ccc(Cl)cc1)C(=O)[*:2]].[dC].Y.[O=C([C@@H](Cc1ccc(N[*:3])cc1)N[*:1])[*:2]].K.T.C.[dY].[am]}|PEPTIDE2{[ac].G}$PEPTIDE1,PEPTIDE2,4:R3-2:R2|PEPTIDE1,PEPTIDE1,2:R3-7:R3$$$V2.0
# SMILES: CC(=O)NCC(=O)Nc1ccc(C[C@H]2NC(=O)[C@H](Cc3ccc(O)cc3)NC(=O)[C@H](NC(=O)[C@@H](N)Cc3ccc(Cl)cc3)CSSC[C@@H](C(=O)N[C@H](Cc3ccc(O)cc3)C(N)=O)NC(=O)[C@H]([C@@H](C)O)NC(=O)[C@H](CCCCN)NC2=O)cc1
# B3: Compound 39: H-Cpa-cyclo[Cys-Tyr-D-(4-carbamoyl)Phe-Lys-Thr-Cys]-DTyr-NH2 (peptide)
# peptide: XCYXKTCX
# HELM: PEPTIDE1{[N[C@@H](Cc1ccc(Cl)cc1)C(=O)[*:2]].C.Y.[NC(=O)c1ccc(C[C@@H](N[*:1])C(=O)[*:2])cc1].K.T.C.[dY].[am]}$PEPTIDE1,PEPTIDE1,2:R3-7:R3$$$V2.0
# SMILES: C[C@@H](O)[C@@H]1NC(=O)[C@H](CCCCN)NC(=O)[C@@H](Cc2ccc(C(N)=O)cc2)NC(=O)[C@H](Cc2ccc(O)cc2)NC(=O)[C@@H](NC(=O)[C@@H](N)Cc2ccc(Cl)cc2)CSSC[C@@H](C(=O)N[C@H](Cc2ccc(O)cc2)C(N)=O)NC1=O
# B4: Compound 40: H-Cpa-cyclo[DCys-Tyr-D-(4-carbamoyl)Phe-Lys-Thr-Cys]-DPhe-NH2 (peptide)
# peptide: XXYXKTCX
# HELM: PEPTIDE1{[N[C@@H](Cc1ccc(Cl)cc1)C(=O)[*:2]].[dC].Y.[NC(=O)c1ccc(C[C@@H](N[*:1])C(=O)[*:2])cc1].K.T.C.[dF].[am]}$PEPTIDE1,PEPTIDE1,2:R3-7:R3$$$V2.0
# SMILES: C[C@@H](O)[C@@H]1NC(=O)[C@H](CCCCN)NC(=O)[C@@H](Cc2ccc(C(N)=O)cc2)NC(=O)[C@H](Cc2ccc(O)cc2)NC(=O)[C@H](NC(=O)[C@@H](N)Cc2ccc(Cl)cc2)CSSC[C@@H](C(=O)N[C@H](Cc2ccccc2)C(N)=O)NC1=O
# B5: Compound 41: H-Cpa-cyclo[DCys-Phe-D-(4-carbamoyl)Phe-Lys-Thr-Cys]-DPhe-NH2 (peptide)
# peptide: XXFXKTCX
# HELM: PEPTIDE1{[N[C@@H](Cc1ccc(Cl)cc1)C(=O)[*:2]].[dC].F.[NC(=O)c1ccc(C[C@@H](N[*:1])C(=O)[*:2])cc1].K.T.C.[dF].[am]}$PEPTIDE1,PEPTIDE1,2:R3-7:R3$$$V2.0
# SMILES: C[C@@H](O)[C@@H]1NC(=O)[C@H](CCCCN)NC(=O)[C@@H](Cc2ccc(C(N)=O)cc2)NC(=O)[C@H](Cc2ccccc2)NC(=O)[C@H](NC(=O)[C@@H](N)Cc2ccc(Cl)cc2)CSSC[C@@H](C(=O)N[C@H](Cc2ccccc2)C(N)=O)NC1=O
# B6: Compound 42: H-Cpa-cyclo[DCys-Tyr-D-(4-carbamoyl)Phe-Lys-Thr-Cys]-4-Cl-D-Phe-NH2 (peptide)
# peptide: H-[Phe(4-Cl)][dC]Y[dPhe(4-CONH2)]KTC[dPhe(4-Cl)]-NH2
# modifications: disulfide 2-7
# SMILES: C[C@@H](O)[C@@H]1NC(=O)[C@H](CCCCN)NC(=O)[C@@H](Cc2ccc(C(N)=O)cc2)NC(=O)[C@H](Cc2ccc(O)cc2)NC(=O)[C@H](NC(=O)[C@@H](N)Cc2ccc(Cl)cc2)CSSC[C@@H](C(=O)N[C@H](Cc2ccc(Cl)cc2)C(N)=O)NC1=O
# B7: Compound 43: H-Cpa-cyclo[DCys-4-Cl-Phe-D-(4-carbamoyl)Phe-Lys-Thr-Cys]-4-Cl-D-Phe-NH2 (peptide)
# peptide: H-[Phe(4-Cl)][dC][Phe(4-Cl)][dPhe(4-CONH2)]KTC[dPhe(4-Cl)]-NH2
# modifications: disulfide 2-7
# SMILES: C[C@@H](O)[C@@H]1NC(=O)[C@H](CCCCN)NC(=O)[C@@H](Cc2ccc(C(N)=O)cc2)NC(=O)[C@H](Cc2ccc(Cl)cc2)NC(=O)[C@H](NC(=O)[C@@H](N)Cc2ccc(Cl)cc2)CSSC[C@@H](C(=O)N[C@H](Cc2ccc(Cl)cc2)C(N)=O)NC1=O
# B8: Compound 44: H-Cpa-cyclo[DCys-Tyr-D-(4-carbamoyl)Phe-Lys-Thr-Cys]-4-OMe-D-Phe-NH2 (peptide)
# peptide: H-[Phe(4-Cl)][dC]Y[dPhe(4-CONH2)]KTC[dTyr(Me)]-NH2
# modifications: disulfide 2-7
# SMILES: COc1ccc(C[C@@H](NC(=O)[C@@H]2CSSC[C@@H](NC(=O)[C@@H](N)Cc3ccc(Cl)cc3)C(=O)N[C@@H](Cc3ccc(O)cc3)C(=O)N[C@H](Cc3ccc(C(N)=O)cc3)C(=O)N[C@@H](CCCCN)C(=O)N[C@@H]([C@@H](C)O)C(=O)N2)C(N)=O)cc1
# B9: Compound 45: H-Cpa-cyclo[DCys-4-OMe-Phe-D-(4-carbamoyl)Phe-Lys-Thr-Cys]-4-OMe-D-Phe-NH2 (peptide)
# peptide: H-[Phe(4-Cl)][dC][Tyr(Me)][dPhe(4-CONH2)]KTC[dTyr(Me)]-NH2
# modifications: disulfide 2-7
# SMILES: COc1ccc(C[C@@H]2NC(=O)[C@H](NC(=O)[C@@H](N)Cc3ccc(Cl)cc3)CSSC[C@@H](C(=O)N[C@H](Cc3ccc(OC)cc3)C(N)=O)NC(=O)[C@H]([C@@H](C)O)NC(=O)[C@H](CCCCN)NC(=O)[C@@H](Cc3ccc(C(N)=O)cc3)NC2=O)cc1
# B10: Compound 46: H-Cpa-cyclo[D-Cys-Tyr-D-Phe(4-carbamoyl)-Lys(Nε-Me)-Thr-Cys]-D-Cpa-NH2 (peptide)
# peptide: H-[Phe(4-Cl)][dC]Y[dPhe(4-CONH2)]K(Me)TC[dPhe(4-Cl)]-NH2
# modifications: disulfide 2-7
# SMILES: CNCCCC[C@@H]1NC(=O)[C@@H](Cc2ccc(C(N)=O)cc2)NC(=O)[C@H](Cc2ccc(O)cc2)NC(=O)[C@H](NC(=O)[C@@H](N)Cc2ccc(Cl)cc2)CSSC[C@@H](C(=O)N[C@H](Cc2ccc(Cl)cc2)C(N)=O)NC(=O)[C@H]([C@@H](C)O)NC1=O
# B11: Compound 47: H-Cpa-cyclo[D-Cys-Cpa-D-Phe(4-carbamoyl)-Lys(Nε-Me)-Thr-Cys]-D-Cpa-NH2 (peptide)
# peptide: H-[Phe(4-Cl)][dC][Phe(4-Cl)][dPhe(4-CONH2)]K(Me)TC[dPhe(4-Cl)]-NH2
# modifications: disulfide 2-7
# SMILES: CNCCCC[C@@H]1NC(=O)[C@@H](Cc2ccc(C(N)=O)cc2)NC(=O)[C@H](Cc2ccc(Cl)cc2)NC(=O)[C@H](NC(=O)[C@@H](N)Cc2ccc(Cl)cc2)CSSC[C@@H](C(=O)N[C@H](Cc2ccc(Cl)cc2)C(N)=O)NC(=O)[C@H]([C@@H](C)O)NC1=O
# B12: Compound 48: H-Cpa-cyclo[D-Cys-Cpa-D-Phe(4-carbamoyl)-Lys(Nε-Me)-Thr-Cys]-D-Tyr-NH2 (peptide)
# peptide: H-[Phe(4-Cl)][dC][Phe(4-Cl)][dPhe(4-CONH2)]K(Me)TC[dY]-NH2
# modifications: disulfide 2-7
# SMILES: CNCCCC[C@@H]1NC(=O)[C@@H](Cc2ccc(C(N)=O)cc2)NC(=O)[C@H](Cc2ccc(Cl)cc2)NC(=O)[C@H](NC(=O)[C@@H](N)Cc2ccc(Cl)cc2)CSSC[C@@H](C(=O)N[C@H](Cc2ccc(O)cc2)C(N)=O)NC(=O)[C@H]([C@@H](C)O)NC1=O
# B13: Compound 49: H-βAla-Cpa-cyclo[DCys-Tyr-DPhe(4-CONH2)-Lys(Me)-Thr-Cys]-DTyr-NH2 (peptide)
# peptide: H-[βAla][Phe(4-Cl)][dC]Y[dPhe(4-CONH2)]K(Me)TC[dY]-NH2
# modifications: disulfide 3-8
# SMILES: CNCCCC[C@@H]1NC(=O)[C@@H](Cc2ccc(C(N)=O)cc2)NC(=O)[C@H](Cc2ccc(O)cc2)NC(=O)[C@H](NC(=O)[C@H](Cc2ccc(Cl)cc2)NC(=O)CCN)CSSC[C@@H](C(=O)N[C@H](Cc2ccc(O)cc2)C(N)=O)NC(=O)[C@H]([C@@H](C)O)NC1=O
# B14: Compound 50: Ph(CO)NHCH2(CO)-Cpa-cyclo[D-Cys-Tyr-D-Phe(4-carbamoyl)-Lys(Nε-Me)-Thr-Cys]-D-Tyr-NH2 (peptide)
# peptide: Bz-G[Phe(4-Cl)][dC]Y[dPhe(4-CONH2)]K(Me)TC[dY]-NH2
# modifications: disulfide 3-8
# SMILES: CNCCCC[C@@H]1NC(=O)[C@@H](Cc2ccc(C(N)=O)cc2)NC(=O)[C@H](Cc2ccc(O)cc2)NC(=O)[C@H](NC(=O)[C@H](Cc2ccc(Cl)cc2)NC(=O)CNC(=O)c2ccccc2)CSSC[C@@H](C(=O)N[C@H](Cc2ccc(O)cc2)C(N)=O)NC(=O)[C@H]([C@@H](C)O)NC1=O
# Target: somatostatin receptor SSTR3 (UniProt P32745 1-418)
# Assay: cell-based or functional assay
# somatostatin receptor SSTR3, sequence (P32745 whole entry): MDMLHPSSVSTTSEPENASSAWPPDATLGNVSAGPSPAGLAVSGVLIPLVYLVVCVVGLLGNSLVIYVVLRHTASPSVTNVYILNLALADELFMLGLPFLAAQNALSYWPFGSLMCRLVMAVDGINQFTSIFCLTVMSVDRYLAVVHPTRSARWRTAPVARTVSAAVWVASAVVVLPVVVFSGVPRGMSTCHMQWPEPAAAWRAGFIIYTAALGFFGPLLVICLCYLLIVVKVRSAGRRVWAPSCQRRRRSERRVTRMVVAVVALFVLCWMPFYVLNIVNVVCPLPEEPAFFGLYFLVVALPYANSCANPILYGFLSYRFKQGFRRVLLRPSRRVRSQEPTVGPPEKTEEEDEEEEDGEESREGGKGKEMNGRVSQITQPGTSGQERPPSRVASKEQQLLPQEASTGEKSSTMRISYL
row,Binder,"IC50 (PathHunter β-Arrestin, antagonist mode) [µM]"
1,H-[Phe(4-Cl)][dC]Y[dPhe(4-aminomethyl)]KTC[dY]-NH2 (disulfide 2-7) [Compound 5: H-Cpa-cyclo[DCys-Tyr-D-(4-aminomethyl)Phe-Lys-Thr-Cys]-DTyr-NH2],> 1
2,H-[Phe(4-Cl)][dC]Y[dPhe(4-acetamidomethyl)]KTC[dY]-NH2 (disulfide 2-7) [Compound 6: H-Cpa-cyclo[DCys-Tyr-D-(4-acetamidomethyl)Phe-Lys-Thr-Cys]-DTyr-NH2],> 1
3,B1,> 1
4,B2,> 1
5,H-[Phe(4-Cl)][dC]Y[dAph(Pro)]KTC[dY]-NH2 (disulfide 2-7) [Compound 10: H-Cpa-cyclo[DCys-Tyr-D-4-(Pro)Aph-Lys-Thr-Cys]-DTyr-NH2],> 1

# Target: somatostatin receptor type 2 (SSTR2) (UniProt P30874 1-369)
# Assay: cell-based or functional assay
# somatostatin receptor type 2 (SSTR2), sequence (P30874 whole entry): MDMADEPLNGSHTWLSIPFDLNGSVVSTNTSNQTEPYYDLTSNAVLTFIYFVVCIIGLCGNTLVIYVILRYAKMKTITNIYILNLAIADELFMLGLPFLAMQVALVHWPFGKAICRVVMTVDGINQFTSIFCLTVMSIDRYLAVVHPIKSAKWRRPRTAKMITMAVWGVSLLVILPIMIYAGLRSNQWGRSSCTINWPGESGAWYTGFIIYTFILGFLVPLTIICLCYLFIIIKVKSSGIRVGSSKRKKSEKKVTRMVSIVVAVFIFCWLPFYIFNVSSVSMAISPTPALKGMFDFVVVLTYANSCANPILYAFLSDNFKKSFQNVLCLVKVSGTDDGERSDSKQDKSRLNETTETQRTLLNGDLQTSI
row,Binder,"IC50 (PathHunter β-Arrestin, antagonist mode) [µM]"
1,H-[Phe(4-Cl)][dC]Y[dPhe(4-aminomethyl)]KTC[dY]-NH2 (disulfide 2-7) [Compound 5: H-Cpa-cyclo[DCys-Tyr-D-(4-aminomethyl)Phe-Lys-Thr-Cys]-DTyr-NH2],0.213
2,H-[Phe(4-Cl)][dC]Y[dPhe(4-acetamidomethyl)]KTC[dY]-NH2 (disulfide 2-7) [Compound 6: H-Cpa-cyclo[DCys-Tyr-D-(4-acetamidomethyl)Phe-Lys-Thr-Cys]-DTyr-NH2],0.166
3,B1,0.084
4,B2,0.104
5,H-[Phe(4-Cl)][dC]Y[dAph(Pro)]KTC[dY]-NH2 (disulfide 2-7) [Compound 10: H-Cpa-cyclo[DCys-Tyr-D-4-(Pro)Aph-Lys-Thr-Cys]-DTyr-NH2],> 1
6,B3,> 1
7,B4,0.0162
8,B5,0.0244
9,B6,0.00984
10,B7,0.0256
11,B8,0.0107
12,B9,0.0146
13,B10,0.000398
14,B11,0.00151
15,B12,0.00131
16,B13,0.00286
17,B14,0.00111
18,{2‑(phenylsulfonyl)acetyl}-[Phe(4-Cl)][dC]Y[dPhe(4-CONH2)]K(Me)TC[dY]-NH2 (disulfide 2-7) [Compound 51: PhSO2CH2(CO)-Cpa-cyclo[D-Cys-Tyr-D-Phe(4-carbamoyl)-Lys(Nε-Me)-Thr-Cys]-D-Tyr-NH2],0.00145
19,"{3,3‑dimethylbutanoyl}-[Phe(4-Cl)][dC]Y[dPhe(4-CONH2)]K(Me)TC[dY]-NH2 (disulfide 2-7) [Compound 52: t-BuCH2(CO)-Cpa-cyclo[D-Cys-Tyr-D-Phe(4-carbamoyl)-Lys(Nε-Me)-Thr-Cys]-D-Tyr-NH2]",0.00173
20,picolinoyl-[Phe(4-Cl)][dC]Y[dPhe(4-CONH2)]K(Me)TC[dY]-NH2 (disulfide 2-7) [Compound 53: 2-Pyridyl(CO)-Cpa-cyclo[D-Cys-Tyr-D-Phe(4-carbamoyl)-Lys(Nε-Me)-Thr-Cys]-D-Tyr-NH2],0.00428
21,succinamoyl-[Phe(4-Cl)][dC]Y[dPhe(4-CONH2)]K(Me)TC[dY]-NH2 (disulfide 2-7) [Compound 54: H2N(CO)(CH2)2(CO)-Cpa-cyclo[D-Cys-Tyr-D-Phe(4-carbamoyl)-Lys(Nε-Me)-Thr-Cys]-D-Tyr-NH2],0.00233
